Reference: PMC9482650, “Quantitative fragmentomics allow affinity mapping of interactomes” (Nature Communications, 2022)

T1: SNTA1, Q13424
T1 sequence (Q13424 82-180, limits assumed, looked up): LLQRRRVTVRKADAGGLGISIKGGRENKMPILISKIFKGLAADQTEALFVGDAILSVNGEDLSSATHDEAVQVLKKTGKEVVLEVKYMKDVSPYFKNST

T2: DFNB31_2, Q9P202
T2 sequence (Q9P202 274-371, limits assumed, looked up): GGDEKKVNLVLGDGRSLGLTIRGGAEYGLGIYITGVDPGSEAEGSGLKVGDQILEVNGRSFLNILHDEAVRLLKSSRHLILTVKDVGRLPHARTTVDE

T3: LNX2_3, Q8N448
T3 sequence (Q8N448 463-564, limits assumed, looked up): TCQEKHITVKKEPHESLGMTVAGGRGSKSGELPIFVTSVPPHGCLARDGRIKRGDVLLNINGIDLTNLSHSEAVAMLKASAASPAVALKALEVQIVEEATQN

T4: ARHGEF11, O15085
T4 sequence (O15085 42-136, limits assumed, looked up): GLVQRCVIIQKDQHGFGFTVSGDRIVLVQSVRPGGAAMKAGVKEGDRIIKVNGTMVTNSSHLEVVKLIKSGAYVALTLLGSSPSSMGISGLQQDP

T5: GRIP1_7, Q9Y3R0
T5 sequence (Q9Y3R0 999-1096, limits assumed, looked up): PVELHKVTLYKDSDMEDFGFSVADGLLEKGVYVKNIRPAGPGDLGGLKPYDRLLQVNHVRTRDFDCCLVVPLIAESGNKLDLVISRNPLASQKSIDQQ

T6: HTRA3, P83110
T6 sequence (P83110 354-453, limits assumed, looked up): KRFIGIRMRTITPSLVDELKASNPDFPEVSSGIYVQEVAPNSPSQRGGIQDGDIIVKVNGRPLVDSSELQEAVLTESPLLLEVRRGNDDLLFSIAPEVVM

T7: TX1BP3, O14907
T7 sequence (O14907 10-122, limits assumed, looked up): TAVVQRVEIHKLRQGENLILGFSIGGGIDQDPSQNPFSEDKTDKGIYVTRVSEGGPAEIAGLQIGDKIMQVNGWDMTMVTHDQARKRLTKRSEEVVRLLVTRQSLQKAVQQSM

T8: LIN7C, Q9NUP9
T8 sequence (Q9NUP9 88-185, limits assumed, looked up): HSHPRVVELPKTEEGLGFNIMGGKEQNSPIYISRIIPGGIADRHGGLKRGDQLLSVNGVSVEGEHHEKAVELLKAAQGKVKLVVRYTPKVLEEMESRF

T9: MPDZ_5, O75970
T9 sequence (O75970 695-796, limits assumed, looked up): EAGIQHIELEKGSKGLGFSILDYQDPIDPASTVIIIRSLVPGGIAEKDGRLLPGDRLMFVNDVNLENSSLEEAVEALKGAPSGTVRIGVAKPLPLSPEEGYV

T10: PDZD2_2, O15018
T10 sequence (O15018 329-429, limits assumed, looked up): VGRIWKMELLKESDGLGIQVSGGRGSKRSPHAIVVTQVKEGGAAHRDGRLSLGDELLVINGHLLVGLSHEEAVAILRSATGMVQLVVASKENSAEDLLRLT

T11: PARD3B_1, Q8TEW8
T11 sequence (Q8TEW8 196-299, limits assumed, looked up): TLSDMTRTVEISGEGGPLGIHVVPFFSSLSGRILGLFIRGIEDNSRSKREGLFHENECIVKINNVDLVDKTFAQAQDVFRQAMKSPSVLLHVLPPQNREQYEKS

T12: DLG3_1, Q92796
T12 sequence (Q92796 125-227, limits assumed, looked up): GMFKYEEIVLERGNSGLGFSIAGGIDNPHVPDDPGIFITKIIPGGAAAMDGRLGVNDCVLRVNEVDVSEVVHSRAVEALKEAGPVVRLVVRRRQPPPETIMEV


Assays:
Experiment in all cases: holdup assay
Design in all cases: key: below the threshold = too weak to quantify, mostly under pKd 3.1 to 4
Settings in all cases: plain residues with an end cap or a label only (N-terminal biotin on a linker: ado-ado)
SNTA1, Q13424 = molecular target: T1, SNTA1, Q13424
DFNB31_2, Q9P202 = molecular target: T2, DFNB31_2, Q9P202
LNX2_3, Q8N448 = molecular target: T3, LNX2_3, Q8N448
ARHGEF11, O15085 = molecular target: T4, ARHGEF11, O15085
TJP1_2, Q07157 = molecular target: TJP1_2, Q07157
Sequence of TJP1_2, Q07157 (Q07157 181-274): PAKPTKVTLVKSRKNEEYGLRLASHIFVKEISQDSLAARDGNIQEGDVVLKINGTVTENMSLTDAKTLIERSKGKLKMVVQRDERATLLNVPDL

GRIP1_7, Q9Y3R0 = molecular target: T5, GRIP1_7, Q9Y3R0
GRID2IP_2, A4D2P6 = molecular target: GRID2IP_2, A4D2P6
Sequence of GRID2IP_2, A4D2P6 (A4D2P6 272-370): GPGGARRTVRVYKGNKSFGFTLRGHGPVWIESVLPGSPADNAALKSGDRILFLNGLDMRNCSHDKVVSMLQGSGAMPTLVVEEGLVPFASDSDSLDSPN

SCRIB_2, Q14160 = molecular target: SCRIB_2, Q14160
Sequence of SCRIB_2, Q14160 (Q14160 857-960): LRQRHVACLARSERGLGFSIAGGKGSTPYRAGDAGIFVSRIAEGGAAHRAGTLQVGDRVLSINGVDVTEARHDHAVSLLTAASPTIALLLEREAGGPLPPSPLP

Inadl_5, Q8NI35 = molecular target: Inadl_5, Q8NI35
Sequence of Inadl_5, Q8NI35 (Q8NI35 673-780): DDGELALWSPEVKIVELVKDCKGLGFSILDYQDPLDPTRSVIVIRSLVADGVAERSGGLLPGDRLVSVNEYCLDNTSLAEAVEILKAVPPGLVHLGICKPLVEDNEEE

GORASP2, Q9H8Y8 = molecular target: GORASP2, Q9H8Y8
FRMPD2_2, Q68DX3 = molecular target: FRMPD2_2, Q68DX3
Sequence of FRMPD2_2, Q68DX3 (Q68DX3 944-1038): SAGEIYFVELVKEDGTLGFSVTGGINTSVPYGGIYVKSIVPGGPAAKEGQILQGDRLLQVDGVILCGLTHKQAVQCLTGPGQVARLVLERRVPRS

HTRA3, P83110 = molecular target: T6, HTRA3, P83110
NHERF2_2, Q15599 = molecular target: NHERF2_2, Q15599
Sequence of NHERF2_2, Q15599 (Q15599 142-238): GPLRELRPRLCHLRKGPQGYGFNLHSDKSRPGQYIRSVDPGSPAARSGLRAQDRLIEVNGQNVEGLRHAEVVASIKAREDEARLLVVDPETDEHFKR

TX1BP3, O14907 = molecular target: T7, TX1BP3, O14907
LIN7C, Q9NUP9 = molecular target: T8, LIN7C, Q9NUP9
Inadl_3, Q8NI35 = molecular target: Inadl_3, Q8NI35
Sequence of Inadl_3, Q8NI35 (Q8NI35 359-469): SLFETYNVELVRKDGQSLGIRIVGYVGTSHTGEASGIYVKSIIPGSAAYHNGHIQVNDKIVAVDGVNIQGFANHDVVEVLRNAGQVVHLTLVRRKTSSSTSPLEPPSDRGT

FRMPD4, Q14CM0 = molecular target: FRMPD4, Q14CM0
Sequence of FRMPD4, Q14CM0 (Q14CM0 67-160): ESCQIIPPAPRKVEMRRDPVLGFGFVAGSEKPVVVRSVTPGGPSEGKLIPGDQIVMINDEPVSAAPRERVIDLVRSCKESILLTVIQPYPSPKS

MPDZ_5, O75970 = molecular target: T9, MPDZ_5, O75970
GOPC, Q9HD26 = molecular target: GOPC, Q9HD26
LAP2, Q96RT1 = molecular target: LAP2, Q96RT1
Sequence of LAP2, Q96RT1 (Q96RT1 other isoform, or with tags, fused parts or gaps): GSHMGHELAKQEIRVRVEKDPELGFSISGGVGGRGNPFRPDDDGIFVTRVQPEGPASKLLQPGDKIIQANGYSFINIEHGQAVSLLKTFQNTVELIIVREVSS

PDZD2_2, O15018 = molecular target: T10, PDZD2_2, O15018
Inadl_1, Q8NI35 = molecular target: Inadl_1, Q8NI35
Sequence of Inadl_1, Q8NI35 (Q8NI35 113-229): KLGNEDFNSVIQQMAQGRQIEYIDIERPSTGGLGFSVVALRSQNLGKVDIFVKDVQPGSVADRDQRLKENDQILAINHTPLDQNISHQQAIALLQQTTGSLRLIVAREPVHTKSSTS

PARD3B_1, Q8TEW8 = molecular target: T11, PARD3B_1, Q8TEW8
DLG3_1, Q92796 = molecular target: T12, DLG3_1, Q92796

Binder	pKd (SNTA1, Q13424)	pKd (DFNB31_2, Q9P202)	pKd (LNX2_3, Q8N448)	pKd (ARHGEF11, O15085)	pKd (TJP1_2, Q07157)	pKd (GRIP1_7, Q9Y3R0)	pKd (GRID2IP_2, A4D2P6)	pKd (SCRIB_2, Q14160)	pKd (Inadl_5, Q8NI35)	pKd (GORASP2, Q9H8Y8)	pKd (FRMPD2_2, Q68DX3)	pKd (HTRA3, P83110)	pKd (NHERF2_2, Q15599)	pKd (TX1BP3, O14907)	pKd (LIN7C, Q9NUP9)	pKd (Inadl_3, Q8NI35)	pKd (MPDZ_5, O75970)	pKd (GOPC, Q9HD26)	pKd (LAP2, Q96RT1)	pKd (PDZD2_2, O15018)	also measured
PSDSVGKDVF [EGLN1, Q9GZT9]	below the threshold	below the threshold	below the threshold	below the threshold	below the threshold	below the threshold	below the threshold	below the threshold	below the threshold	below the threshold	below the threshold	below the threshold	below the threshold	below the threshold	below the threshold	below the threshold	below the threshold	below the threshold	below the threshold	3.62	pKd (FRMPD4, Q14CM0): below the threshold; pKd (Inadl_1, Q8NI35): below the threshold; pKd (PARD3B_1, Q8TEW8): 3.5; pKd (DLG3_1, Q92796): below the threshold
SKQFDKNAYV [CLDN10, P78369]	3.55	below the threshold	below the threshold	below the threshold	3.61	below the threshold	below the threshold	below the threshold	3.52	below the threshold	below the threshold	4.06	below the threshold	below the threshold	below the threshold	below the threshold	below the threshold	below the threshold	below the threshold	5.11	pKd (FRMPD4, Q14CM0): 3.59; pKd (Inadl_1, Q8NI35): below the threshold; pKd (PARD3B_1, Q8TEW8): 3.97; pKd (DLG3_1, Q92796): below the threshold
THREVKFTSL [CD46, P15529]	4.17	4.28	below the threshold	4.75	below the threshold	below the threshold	4.95	3.67	below the threshold	below the threshold	below the threshold	below the threshold	4.36	4.37	below the threshold	below the threshold	below the threshold	4.05	below the threshold	4.26	pKd (FRMPD4, Q14CM0): 4.16; pKd (Inadl_1, Q8NI35): below the threshold; pKd (PARD3B_1, Q8TEW8): 4.24; pKd (DLG3_1, Q92796): below the threshold

Continued, in another order:

pKd (SNTA1, Q13424)	pKd (DFNB31_2, Q9P202)	pKd (LNX2_3, Q8N448)	pKd (ARHGEF11, O15085)	pKd (TJP1_2, Q07157)	pKd (GRIP1_7, Q9Y3R0)	pKd (GRID2IP_2, A4D2P6)	pKd (SCRIB_2, Q14160)	pKd (Inadl_5, Q8NI35)	pKd (GORASP2, Q9H8Y8)	pKd (FRMPD2_2, Q68DX3)	pKd (HTRA3, P83110)	pKd (NHERF2_2, Q15599)	pKd (TX1BP3, O14907)	pKd (LIN7C, Q9NUP9)	pKd (Inadl_3, Q8NI35)	pKd (MPDZ_5, O75970)	pKd (GOPC, Q9HD26)	pKd (LAP2, Q96RT1)	pKd (PDZD2_2, O15018)	Binder	also measured
below the threshold	below the threshold	below the threshold	below the threshold	below the threshold	below the threshold	4.31	below the threshold	below the threshold	below the threshold	below the threshold	below the threshold	4.94	below the threshold	below the threshold	below the threshold	below the threshold	below the threshold	below the threshold	below the threshold	PAALPESTHM [SLC9A3, P48764]	pKd (FRMPD4, Q14CM0): below the threshold; pKd (Inadl_1, Q8NI35): below the threshold; pKd (PARD3B_1, Q8TEW8): 3.6; pKd (DLG3_1, Q92796): below the threshold
below the threshold	below the threshold	below the threshold	4.05	below the threshold	below the threshold	below the threshold	below the threshold	below the threshold	below the threshold	below the threshold	below the threshold	4.64	below the threshold	below the threshold	below the threshold	below the threshold	below the threshold	below the threshold	below the threshold	NTALVESEDL [PALLS, Q8WX93;Q8WX93-1]	pKd (Inadl_1, Q8NI35): below the threshold; pKd (DLG3_1, Q92796): below the threshold
below the threshold	below the threshold	below the threshold	3.62	below the threshold	below the threshold	below the threshold	3.67	below the threshold	below the threshold	below the threshold	below the threshold	5.04	below the threshold	4.01	below the threshold	below the threshold	below the threshold	below the threshold	3.72	VYEVPVETKF [SLC26A3, P40879]	pKd (FRMPD4, Q14CM0): 3.65; pKd (Inadl_1, Q8NI35): below the threshold; pKd (PARD3B_1, Q8TEW8): 4.19; pKd (DLG3_1, Q92796): below the threshold
